Data taken from patent US20170342167A1 (Hoffmann-La Roche, published 2017).
Positions count from the first letter of the chain named. Names and notes keep the numbering of the source.

B1: IgG1 Fc-region with L234A/L235A/P329G and H310A/H433A/Y436A in both Fc-region polypeptides (other)
chain: DKTHTCPPCPAPEAAGGPSVFLFPPKPKDTLMISRTPEVTCVVVDVSHEDPEVKFNWYVDGVEVHNAKTKPREEQYNSTYRVVSVLTVLAQDWLNGKEYKCKVSNKALGAPIEKTISKAKGQPREPQVYTLPPSRDELTKNQVSLTCLVKGFYPSDIAVEWESNGQPENNYKTTPPVLDSDGSFFLYSKLTVDKSRWQQGNVFSCSVMHEALANHATQKSLSLSPGK
notes: As m2; Positions are EU numbers, not positions on the entry; also called HHY-AAA mutation
B2: IgG1 Fc-region with L234A/L235A/P329G and I253A/H435A in both Fc-region polypeptides (other)
chain: B1 chain with I33A, A90H, A213H, H215A, A216Y
notes: As m2; Positions are EU numbers, not positions on the entry
B3: IgG1 Fc-region with L234A/L235A/P329G and H310A/Y436A in both Fc-region polypeptides (other)
chain: B1 chain with A213H
notes: as for B2
B4: IgG1 Fc-region with L234A/L235A/P329G and H310A/H435A in both Fc-region polypeptides (other)
chain: B1 chain with A213H, H215A, A216Y
notes: as for B2
B5: IgG1 Fc-region with L234A/L235A/P329G and I253A/H310A in both Fc-region polypeptides (other)
chain: B1 chain with I33A, A213H, A216Y
notes: as for B2
B6: IgG1 Fc-region with L234A/L235A/P329G and I253A/H310A/H435A in both Fc-region polypeptides (other)
chain: B1 chain with I33A, A213H, H215A, A216Y
notes: As m2; Positions are EU numbers, not positions on the entry; also called IHH-AAA mutation

biological target: T1, human neonatal Fc-receptor (FcRn) (human, UniProt P55899 24-297; P61769 21-119, limits assumed, biotinylated (site not stated), coupled to streptavidin sepharose); test: FcRn affinity chromatography
T1 construct: also called FcRn receptor

Molecule | binding result
B1 | no binding (tested: retention time below 3 minutes)
B2 | no binding (tested: retention time below 3 minutes)
B3 | no binding (tested: retention time below 3 minutes)
B4 | no binding (tested: retention time below 3 minutes)
B5 | no binding (tested: retention time below 3 minutes)
B6 | no binding (tested: retention time below 3 minutes)

biological target: T1, human neonatal Fc-receptor (FcRn); test: FcRn affinity chromatography, anti-HER2 antibody

retention time [min] | Molecule
45.2 | anti-HER2 antibody symmetrically modified with K288E
45.6 | anti-HER2 antibody symmetrically modified with E258H
45.5 | anti-HER2 antibody symmetrically modified with L309H
46.3 | anti-HER2 antibody, wild-type
46.4 | anti-HER2 antibody symmetrically modified with E430H
46.3 | anti-HER2 antibody symmetrically modified with K317H
46.2 | anti-HER2 antibody symmetrically modified with K290H
52 | anti-HER2 antibody symmetrically modified with N434H
46.3 | anti-HER2 antibody symmetrically modified with Q311H
46 | anti-HER2 antibody symmetrically modified with T256H
41.4 | anti-HER2 antibody symmetrically modified with R255D
